From article PMC12543377, “https://orcid.org/0000-0003-0166-1786 Gustavsson Emil Data curation Formal analysis Investigation Methodology Project administration Validation Visualization Writing - original draft Writing - review”

How the values were obtained:
[1] = target: T1, OBP (UL9 origin-binding protein), dimer-dimer assembly (Herpes simplex virus 1, UniProt D3YPE9 1-851); test: cryo-EM (2D classes); two dimers, each apparently on two antiparallel OriS helices (Box 1 and Box 2); low frequency; 20 mM HEPES pH 7.8, 150 mM NaCl, 5 mM MgCl2, 2 mM DTT, 5% glycerol; 2 uM OBP, protein:DNA 1:1.2, 37 C 30 min, then vitrified; details: protein: recombinant; (StrepTrap purification; tag not described); chain copies: 4
[2] = target: T2, OBP (UL9 origin-binding protein), dimer (Herpes simplex virus 1, UniProt D3YPE9 1-851); test: cryo-EM; ATPgS, Mg2+; one dimer at Box 1; 20 mM HEPES pH 7.8, 150 mM NaCl, 5 mM MgCl2, 2 mM DTT, 5% glycerol; 2 uM OBP, protein:DNA 1:1.2, 37 C 30 min, then vitrified; details: protein: recombinant; (StrepTrap purification; tag not described); chain copies: 2
[3] = target: T2, OBP (UL9 origin-binding protein), dimer; test: cryo-EM; no nucleotide; 5 mM MgCl2; one dimer at Box 1; 20 mM HEPES pH 7.8, 150 mM NaCl, 5 mM MgCl2, 2 mM DTT, 5% glycerol; 2 uM OBP, protein:DNA 1:1.2, 37 C 30 min, then vitrified; details: protein: recombinant; (StrepTrap purification; tag not described); chain copies: 2
[4] = target: T1, OBP (UL9 origin-binding protein), …; test: cryo-EM; two dimers with putatively two mini-OriS* copies; 20 mM HEPES pH 7.8, 150 mM NaCl, 5 mM MgCl2, 2 mM DTT, 5% glycerol; 2 uM OBP, protein:DNA 1:1.2, 37 C 30 min, then vitrified; details: protein: recombinant; (StrepTrap purification; tag not described); chain copies: 4; hairpin with 3' single-stranded tail
[5] = target: OBP (UL9 origin-binding protein), monomer (Herpes simplex virus 1, UniProt D3YPE9 1-851); test: cryo-EM; monomer; preferred orientation, DNA path needs validation; 20 mM HEPES pH 7.8, 150 mM NaCl, 5 mM MgCl2, 2 mM DTT, 5% glycerol; 2 uM OBP, protein:DNA 1:1.2, 37 C 30 min, then vitrified; details: protein: recombinant; (StrepTrap purification; tag not described); hairpin with 3' single-stranded tail
[6] = target: the molecule itself; test: cryo-EM structure; OBP + mini-OriS*, dimer-dimer assembly dataset; same reconstitution; lower resolution; dimers to dimer-dimer assembly

B1: OriS (dsDNA)
DNA 1: AAAAGAAGTGAGAACGCGAAGCGTTCGCACTTCGTCCCAATATATATATATTATTAGGGCGAAGTGCGAGCACTGGCGCC
DNA 2: GGCGCCAGTGCTCGCACTTCGCCCTAATAATATATATATATTGGGACGAAGTGCGAACGCTTCGCGTTCTCACTTCTTTT
B1: binds [1]; binds [2].

B2: OriS-6AT (dsDNA)
DNA 1: AAAAGAAGTGAGAACGCGAAGCGTTCGCACTTCGTCCCAATATATTATTAGGGCGAAGTGCGAGCACTGGCGCC
DNA 2: GGCGCCAGTGCTCGCACTTCGCCCTAATAATATATTGGGACGAAGTGCGAACGCTTCGCGTTCTCACTTCTTTT
B2: binds [3].

AAAAGAAGTGAGAACGCGAAGCGTTCGCACTTCGTTTTTTTTTT (structured_DNA) [mini-OriS*]: binds [4]; binds [5].

B3: HSV-1 origin-binding protein (OBP), encoded by the UL9 gene (enzyme)
chain: MPFVGGAESGDPLGAGRPIGDDECEQYTSSVSLARMLYGGDLAEWVPRVHPKTTIERQQHGPVTFPNASAPTARCVTVVRAPMGSGKTTALIRWLREAIHSPDTSVLVVSCRRSFTQTLATRFAESGLVDFVTYFSSTNYIMNDRPFHRLIVQVESLHRVGPNLLNNYDVLVLDEVMSTLGQLYSPTMQQLGRVDALMLRLLRICPRIIAMDATANAQLVDFLCGLRGEKNVHVVVGEYAMPGFSARRCLFLPRLGTELLQAALRPPGPPSGPSPDASPEARGATFFGELEARLGGGDNICIFSSTVSFAEIVARFCRQFTDRVLLLHSLTPLGDVTTWGQYRVVIYTTVVTVGLSFDPLHFDGMFAYVKPMNYGPDMVSVYQSLGRVRTLRKGELLIYMDGSGARSEPVFTPMLLNHVVSSCGQWPAQFSQVTNLLCRRFKGRCDASACDTSLGRGSRIYNKFRYKHYFERCTLACLSDSLNILHMLLTLNCIRVRFWGHDDTLTPKDFCLFLRGVHFDALRAQRDLRELRCRDPEASLPAQAAETEEVGLFVEKYLRSDVAPAEIVALMRNLNSLMGRTRFIYLALLEACLRVPMATRSSAIFRRIYDHYATGVIPTINVTGELELVALPPTLNVTPVWELLCLCSTMAARLHWDSAAGGSGRTFGPDDVLDLLTPHYDRYMQLVFELGHCNVTDGLLLSEEAVKRVADALSGCPPRGSVSETDHAVALFKIIWGELFGVQMAKSTQTFPGAGRVKNLTKQTIVGLLDAHHIDHSACRTHRQLYALLMAHKREFAGARFKLRVPAWGRCLRTHSSSANPNADIILEAALSELPTEAWPMMQGAVNFSTL
notes: No viral strain is named; Tag removal is not mentioned; also called monomer A; monomer B; source: ExpiSf9 cells (recombinant baculovirus), purified (StrepTrap HP, eluted with desthiobiotin)
B3 was tested, and the “stoichiometry N” value [6] was 4.
